Experimental data published in article PMC3060787.
Read-outs that look alike come from different tables or passages of the source.

What was measured:
Experiment in all cases: smFRET
[1] = molecular target: T1, Taq MutS(C42A,T469C)-Cy3 (Thermus aquaticus, UniProt Q56215 1-811, C42A;T469C)
T1 sequence: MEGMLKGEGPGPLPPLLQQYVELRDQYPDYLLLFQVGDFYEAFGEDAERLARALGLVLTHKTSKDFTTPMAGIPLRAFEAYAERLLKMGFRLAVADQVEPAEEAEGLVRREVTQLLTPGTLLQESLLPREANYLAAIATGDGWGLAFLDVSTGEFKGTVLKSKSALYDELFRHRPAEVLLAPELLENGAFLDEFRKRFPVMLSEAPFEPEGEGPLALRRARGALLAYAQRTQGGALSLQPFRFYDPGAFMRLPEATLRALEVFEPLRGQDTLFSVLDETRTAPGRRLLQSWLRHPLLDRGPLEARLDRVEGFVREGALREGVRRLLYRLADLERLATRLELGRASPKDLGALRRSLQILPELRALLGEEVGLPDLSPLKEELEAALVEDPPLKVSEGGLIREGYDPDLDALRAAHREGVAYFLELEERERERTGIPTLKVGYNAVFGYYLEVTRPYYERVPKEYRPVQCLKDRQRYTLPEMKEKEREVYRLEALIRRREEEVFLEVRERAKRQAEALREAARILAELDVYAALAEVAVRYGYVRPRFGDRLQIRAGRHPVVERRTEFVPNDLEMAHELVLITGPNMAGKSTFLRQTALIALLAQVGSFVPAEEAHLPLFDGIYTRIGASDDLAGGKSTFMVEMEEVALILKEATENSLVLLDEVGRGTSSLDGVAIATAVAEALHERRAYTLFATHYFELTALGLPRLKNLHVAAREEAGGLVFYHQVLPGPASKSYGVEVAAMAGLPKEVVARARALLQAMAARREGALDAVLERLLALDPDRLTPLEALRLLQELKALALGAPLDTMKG

[2] = molecular target: T1, Taq MutS(C42A,T469C)-Cy3; remark: listed apart in the source
[3] = molecular target: T1, Taq MutS(C42A,T469C)-Cy3; remark: listed apart in the source
[4] = molecular target: T1, Taq MutS(C42A,T469C)-Cy3; remark: listed apart in the source

B1: 74 bp duplex, both ends blocked (dsDNA)
DNA 1: ATTCAGCTGTACCCAATTCACTCTACGACGAGGCGTCGCTAGCGTCGCATCCTGCTGTAAGTTTCATGTCCACC
DNA 2: GGTGGACATGAAACTTACAGCAGGATGCGACGCTAGCGACGCCTCGTCGTAGAGTGAATTGGGTACAGCTGAAT
modifications: amino-C6 dT (Cy5 site)
[1]
  Kd: 128 ± 12 nM

B2: +dT mismatch DNA (74/75 nt), both ends blocked (dsDNA)
DNA 1: ATTCAGCTGTACCCAATTCACTCTACGACGAGGCGTCGCTAGCGTCGCATCCTGCTGTAAGTTTCATGTCCACC
DNA 2: GGTGGACATGAAACTTACAGCAGGATGCGACGCTAGCGTACGCCTCGTCGTAGAGTGAATTGGGTACAGCTGAAT
modifications: amino-C6 dT (Cy5 site, nt 45 from 5' biotin)
[2]
  Kd: 16.2 ± 2.1 nM

B3: +dT mismatch DNA with dT10 ssDNA tail (74/85 nt) (dsDNA)
DNA 1: ATTCAGCTGTACCCAATTCACTCTACGACGAGGCGTCGCTAGCGTCGCATCCTGCTGTAAGTTTCATGTCCACC
DNA 2: TTTTTTTTTTGGTGGACATGAAACTTACAGCAGGATGCGACGCTAGCGTACGCCTCGTCGTAGAGTGAATTGGGTACAGCTGAAT
modifications: amino-C6 dT (Cy5 site)
[3]
  binding result: binds

B4: 100 bp duplex (dsDNA)
DNA 1: GTTACCGATACGATACGAATAGGCATATCTGCACGTTTCTCACGAGGCGCCGCTAGACTGATCTGGAGCTTAATTGCCTGCCGGAGCTAAAGACGTTCCA
DNA 2: TGGAACGTCTTTAGCTCCGGCAGGCAATTAAGCTCCAGATCAGTCTAGCGGCGCCTCGTGAGAAACGTGCAGATATGCCTATTCGTATCGTATCGGTAAC
modifications: amino-C6 dT (Cy5 site)
[4]
  binding result: binds

B5: 100 bp +dT mismatch DNA (100/101 nt) (dsDNA)
DNA 1: GTTACCGATACGATACGAATAGGCATATCTGCACGTTTCTCACGAGGCGCCGCTAGACTGATCTGGAGCTTAATTGCCTGCCGGAGCTAAAGACGTTCCA
DNA 2: TGGAACGTCTTTAGCTCCGGCAGGCAATTAAGCTCCAGATCAGTCTAGCGTGCGCCTCGTGAGAAACGTGCAGATATGCCTATTCGTATCGTATCGGTAAC
modifications: amino-C6 dT (Cy5 site)
[4]
  binding result: binds
